# Laboratory results taken from a protein production outcome set (Wang et al. 2014).
# Assay: label from the status in PepcDB records
sequence,measurement,value
MTMKKSEITVALAGNANVGKSVIFNQLTGSNQIVGNWPGKTVERAEGYLKFQGRDIHIIDLPGIYSFSTYSMEEIVSRDFIINEGPDVVINVLDASVLERNLFFTLQLMEMEVPMVICINQVDMARQKGITIDDEKLEKVLGVPVVSTVAVKGRGLQELLRKTVEVADKKTLPRIIEYGEEIETRIGKLMDALPEIPEGYSARWVAIKLLENDPQITAMMPEDVRKLASELAAEIESIHGEPAFSVITSERYAISSMIAAGAQRQEEIKTSLSERLDGFLTHPVYGYISSVLVVGGLLLWTFVVGEFLSDTLTGIFGFFQPVDPKFSGSIESIIWNGAFGGIVAGLTLVIPFVIPFYLMLSYIENSGLLTRVAFMMDAFMRKIGLHGKALIPLILGYGCSVPAIDSTRILETHRERLLAAFAISFAPCAARTILILGLVALFVNVWWAIGLYALDLLIIFIMGKVALKALPGETTGLIMEMHSLKMPSFRVIARQTWTRTRSLIYLVFPIYIIGSALIQLLYALGWLNPISAFMAPLTVGWLKLPVFAGILLILGAVRKEFILLGLVSLVGTNIGAALTAPQILVLTLVGMLYFPCLSTIAILAREFSWRSTSIITLANLGTALFLGGLFARILPLIF,protein production,failed
MDIDASSCPELYARRAYGAEMTSQHQNTPSSEQIRRAPKVLLHDHLDGGLRPGTIVELARDAGYSGLPETDPDKLGIWFREAADSGSLERYLETFAHTCAVMQTRAALVRVAAECAEDLAADGVVYAEVRYAPEQHLEAGLSLEEVVEAVNEGFRAGERRAKEDGNRIRVGALLTAMRHAARALEIAELANRYRDAGVVGFDIAGAEAGFPPTRHLDAFEYLKRENNHFTIHAGEAFGLPSIWQALQWCGADRLGHGVRIIDDIQVREDGSVKLGRLASYVRDKRIPLELCPSSNLQTGAASSYADHPIGLLRRLHFRATVNTDNRLMSGTSMSREFEHLVDAFGYTLDDMAWFSVNAMKSAFIPFDERLAMINDVIKPGYAELKSEWLFKQTASTSSSAASEE,protein production,not failed
SLSTVELSGTVVKQGYLAKQGHKRKNWKVRRFVLRKDPAFLHYYDPSKEENRPVGGFSLRGSLVSALEDNGVPTGVKGNVQGNLFKVITKDDTHYYIQASSKAERAEWIEAIKKLT,protein production,not failed
MRKPIEHTADIAYEISGNSYEELLEEARNILLEEEGIVLDTEEKEKMYPLEETEDAFFDTVNDWILEISKGWAPWRIKREGNELKVTFRKIRKKEGTEIKALTYHLLKFERDGDVLKTKVVFDT,protein production,not failed
MTRFNRFRRTLMQWTGSLPLLGALPLSKLAQAQGAEQPAASGTPPAGGTRAPRFAYVGTYTFDAPGGTAGGPPARGIYVLAPRGDAWSQAQVVESANPSFLAVHPNQRCLYAINEIDVYEGRATGTAEAYAIDPRDGRLTLLNRQPLSLSGTIPAHVAVSPDGQHLAVALYGGGAYNVLPIGADGRLGSVSGLFKDTGSGPDTARQEAPHAHMVLFDPTGRHILGTDLGTDRINVFALEDGKLTPRDRAQLKPGGGPRHLALHPSGKLLYVISELDSTVACHGYDPATGRVLDERQRIATTPADYTGQKSGAALVMHPSGRFLYASNRRLKSEHPLADSIAAFSIDPASGRLAALQYWSEGLRFPRALTMADDGRHLYALSQKGDTILRLRIDDATGRLDQPAVVSNVPTPVCLVFAG,protein production,failed
MEYYFTAQKLAVGYDNRPLIENIDFSLKRGEILTLIGPNGAGKSTILKSIARQLSLVSGTIYLDKSDVVTMNGNEFAKKMAVVLTDKLKTELMTCYDVVATGRYPYTGRFGVLSDEDKKAVDEAMELVNVSQIKDKDFTKISDGQRQRVMLSRAICQQPEIIVLDEPTSYLDIKYKLEFLSILQRLKRQKNLTVIMSLHELDMAKRVSDHILCIDGRYVDRYGTPEEVFTDQYVSGLFGITAGSFDETGEDLELEKPDGSARIFVIAGGGLGRKSFRSLQRKGIPFATGIIYENDLDYPAAKALSAEIVSARSFEPVDDALIEKAKELIDACEGVICDRTEFGTYEQFNSRLYEYAVSTGKIIKIPFLEEQLAQL,protein production,failed
MIFMRKVVAEVSIIPLGKGASVSKYVKKAIEVFKKYDLKVETNAMGTVLEGDLDEILKAFKEAHSTVLNDVDRVVSSLKIDERKDKENTIERKLKAIGEL,protein production,not failed
PASGVRPAEAADLAAVAAYDSACSPADRPRFLEHWLAGPGHRTFVRLVDGRLTGYGVVRPALDSLRVGPLFADSAEDARALFTALTADAGEIAMDIPETNTAAVALAREAGLTPSFETARMYTGPVRPFAADRVYGITSLELG,protein production,failed
MKEVIHSTLAPKAIGPYSQAIATNDLVFVSGQLGIDVSTGEFKGADIHSQTTQSMENIKAILKEAGLGMDSVVKTTILLKSLDDFAVVNGIYGSYFTEPYPARATFQVAKLPKDALVEIEAIAIK,protein production,failed
IVISAFEQTLWRSEPETPLKVYQLLSGAHYRTSPLDLRRMMDAPGQHFLQAAGENEIAGALCLVDEGGLSQELSQAVWAGYRRPRGNLVAQSLAAHGSNPLAATLRGRRVSRIAVHPARQREGTGRQLIAGALQYIHDLDYLSVSFGYTEELWRFWQRCGFVLVRMGNHREASSGCYTAMALLPM,protein production,failed
MAKIKKYTTKTGKIRYEFQVYAGVDSLTGRQKTTRRRGFKTRKEASIVLSRLELEIEKRGLQEDERRFFRDVCAEWMEQYRLTVRESTLEKTQRIINIHVLPAFGDMVINNITPNVCQKVVNKWFLEAKSYKKWLNYASMIFDYALRAEYVGRNPCTLVTMPRVQEQAGEKLENFWTRDELNTFFDYVTPERDVEQFTMFRVLAYSGIRKGELLALTWKDINFEDNTLRVNKTLTQGLGGKLIVQPPKSRAGRRTIDLDDSTMRYLRQWKGVQRETFLGMGFNTNNVDQLVFASNRNHFRSMNTPTKWLNKAIKATGLKHISIHGFRHTHASLLYQSGVGLKETQQRLGHSRADSSVTLDVYTHTTEQQNVAALQRFENYVEAK,protein production,failed
MNIFTEAAKLEEQNCPFAMAQIVDSRGSTPRHSAQMLVRADGSIVGTIGGGMVERKVIEESLQALQERKPRLFHGRMARNGADAVGSDCGGAMSVFISVHGMRPRLVLIGAGHVNRAIAQSAALLGFDIAVADIYRESLNPELFPPSTTLLHAESFGAAVEALDIRPDNFVLIATNNQDREALDKLIEQPIAWLGLLASRRKVQLFLRQLREKGVAEEHIARLHAPVGYNIGAETPQEIAISVLAEILQVKNNAPGGLMMKPSHPSGHQLVVIRGAGDIASGVALRLYHAGFKVIMLEVEKPTVIRCTVAFAQAVFDGEMTVEGVTARLATSSAEAMKLTERGFIPVMVDPACSLLDELKPLCVVDAILAKQNLGTRADMAPVTIALGPGFTAGKDCHAVIETNRGHWLGQVIYSGCAQENTGVPGNIMGHTTRRVIRAPAAGIMRSNVKLGDLVKEGDVIAWIGEHEIKAPLTGMVRGLLNDGLAVVGGFKIGDIDPRGETADFTSVSDKARAIGGGVLEALMMLMHQGVKATKEVLEVALEHHHHHH,protein production,failed
MKVLIGGYTKKTSKGIYELPFIGEDNEAHLEKAENIISVGGPTYFQKDGDLVFTINNAGDEGGISAFKLSDHGSNEIDRHLTPGASPAYIGINKEKKLLYTANYHTAVLSVFQYSNSGKLALVAQTTHKAESLGPRPEQVDGPHPHFFDETPAGNLVSCDLGNDTVDFYRLENNELKHLAQYKNEAGFGDRHIVFSKDGNYFYVVGELSSQINVVKFNENTWEFEDIATYKTIPEDFTEHNGAAALYITNDGKYIYNSNRGHNSITVFKVNDDHTLSLIQRISTFGDFPRDFNWDETQKYVVAANQNTDNATLYLRNGGNGTLTPIQTEIPVPEGTRVLFTKLEHHHHHH,protein production,failed
MNFFKILLMELRAIVSHKGVLLILIGAPLIYGLLYPLPYLRDIVTQQKIALVDEDNSFLSRQLAFMAQSSNELEIAFFSPSMLEAKKLLKEEKIYGILHIPSHFEANIHKQVPVTIDFYANSNYFLIYGALANAVVESINALNDEIRFKRNAQIEEAELGTDGIKIRPIALYNPSEGYLNYALSSVFIFILHQVMLIASSMFTSSRRLELALLDRKQIALRLCTRLLVFMGAFSVFILWYFGALFSFYGIERHGSALMVFLNSLIFMLATLSLGSFLGAWIKNEAHTTQIVLISSLPLIFMMGFVWPFESLPSYLQVFVQIVPAYHGISLLGRLNQMHAEFIDVSFHFYALIAIFIASFIGSVFKLSSLKKACENA,protein production,failed
SSTHGSRFPLCGGRRDHKGLTHIFNPPPKRFESILEGLFGPALLKDLSLFKDCEPESISDWTFDENCLFCCLRRDKVKGHLVGLDEPASGAGQEALLKQEQAKIIRFERQAEEFLNAVFYRKDSPWVSDPNIPLVAREIMQRMIQQFAAEYTSKNSSTQDPSQPNSTKNQSLPKASPVTTSPTAATTQNPVLSKLLMADQDSPLDLTVRKSQSEPSEQDGVLDLSTKKSPCAGSTSLSHSPGCSSTQGNGRPGRPSQYRPDGLRSGDGVPPRSLQDGTREGFGHSTSLKVPLARSLQISEELLSRNQLSTAASLGPSGLQNHGQHLILSREASWAKPHYEFNLSRMKFRGNGALSNISDLPFLAENSAFPKMALQAKQDGKKDVSHSSPVDLKIPQVRGMDLSWESRTGDQYSYSSLVMGSQTESALSKKLRAILPKQSRKSMLDAGPDSWGSDAEQSTSGQPYPTSDQEGDPGSKQPRKKRGRYRQYNSEILEEAISVVMSGKMSVSKAQSIYGIPHSTLEYKVKERLGTLKNPPKKKMKLMRSEGPDVSVKIELDPQGEAAQSANESKNE,protein production,not failed
MPGESNIIEWPASRVRVISGASWSRNGQILSGRCKANNGTWFGITKGGRVAFLVNTSLLLDRVKSYSGSELYPVRFLEGNMSPEQFANEVKVHEKETNERHAYSLVVADMTSSSMVHILKPSDTKSDVVIETVPFGVHTLSSYEGLDSTDSARDLLLRRLFTQMVGNLGNVQQRQMEEIAGRFMYDAQAGRDAVFYHSRDEHPNGKLGTQRFGTTSTTALVVKRTREVMLFEKYMEQNGAWNTNNFAFNIQKQQKLYPNLDKEALKRVGVFALEEVNNHEHDIHPDLMPSFFEDDMLKVKFNEMIARHAKLPPIKNIVEDLMMKSPFFIDSVDGAGKKVRYRTVRTLGMDIKANRPQGRFYERHLNDNGEWVG,protein production,failed
MGFTTDKIRTIAVAGHGQSGKTSLVEHLLYVSGLIAKAESVDSGKTVTDYSQEEIDRKISIYSTLVNLQKDDKLINIWDTPGASDFIGEVIAAFRSSEAALIVLDGRSGVQIETIKYWRDLDRRNKPRLVFANKMDEARADFDNCIADVKKQFQVDVFPVSFPMGTGDNFKGVVDVLHGKAYKIEDGKEVETEIPAEYQDKYKDALEVLAGAAAEGDEELLVKFIDEGELSPEEISRGLTLAMADNRIVPLFAGSAINNSGLNSLLRFISEILPSPEGALERGVTKEGEEISVKLDSSAPLSAIVVKTSNDQFSGRLSYVKVITGTLSADSEVYNLREEKKERVGKIYKTLGKKLTEVKEIAAGDIGVLVKLTSTKTNDTLAASADVIPFVRLRTPEPIYSLAVSAIDKKNDDKVSEQLFKACEEDMTLSFAFNAETKQNVLSGMGDLHTSIVLDKVKNQSKIEIQTSIPRIAYRETIQRKSQAEYTHKKQSGGHGQFGRVVLAIEPLPRGEKYKFTNAVFGGAISKGYIPGVEKGVIEAMEKGVSAGYPVVDVAVTVLDGKEHPVDSSEMAFKIAARNAFKDAMRNAGPILLEPIMNLTVFVETSYLGDIMSDLSSRRGRILGQSSPASGIEEIRAQVPHKELLRYAIDLRSMTSGTGSFEMSFDHYDPISGKIADEIIAEAKAFMEEQEE,protein production,failed
MKTGKELKPGTVIRLENDPWLVQKAEFTKSGRNSAIMKTKLKNLLTGYKTEIVYSADDKLDDVILDRKEATLSFISGDTYTFMDTTDYTMYELNAEDIESVLPFVEEGMTDVCEAVFFDERLVSVELPTTIVRQVDYTEGSARGDTSGKVMKPAKLKNGTELSVADFIEIGDMIEIDTREGGSYKGRAKLEHHHHHH,protein production,failed
MQGQNQQQAYDRGITIFSPDGRLYQVEYAREAVKRGTASIGVRTSDGVVLAVDKRIRSPLMERSSVEKIHKADDHIGIASAGHVADARQLIDFARRQAQVNQLRYGEPVGVETLTKEITDYIQQYTQVGGARPFGVALIIGGIVNGEPRLFETDPSGTPYEWKALAVGADRGDIRDYLEEHYDEGMDLDEGVDLALAALASVNDDELSPEGIGVATVDVETETFGQLTDEEKEAHLAEADLLDTGEDADDEAEDEDATEE,protein production,failed
